Assay results published in IntAct's records for PubMed 21360678.

B1: Serine/threonine-protein phosphatase 5 (Homo sapiens), P53041 (parent)
chain: MAMAEGERTECAEPPRDEPPADGALKRAEELKTQANDYFKAKDYENAIKFYSQAIELNPSNAIYYGNRSLAYLRTECYGYALGDATRAIELDKKYIKGYYRRAASNMALGKFRAALRDYETVVKVKPHDKDAKMKYQECNKIVKQKAFERAIAGDEHKRSVVDSLDIESMTIEDEYSGPKLEDGKVTISFMKELMQWYKDQKKLHRKCAYQILVQVKEVLSKLSTLVETTLKETEKITVCGDTHGQFYDLLNIFELNGLPSETNPYIFNGDFVDRGSFSVEVILTLFGFKLLYPDHFHLLRGNHETDNMNQIYGFEGEVKAKYTAQMYELFSEVFEWLPLAQCINGKVLIMHGGLFSEDGVTLDDIRKIERNRQPPDSGPMCDLLWSDPQPQNGRSISKRGVSCQFGPDVTKAFLEENNLDYIIRSHEVKAEGYEVAHGGRCVTVFSAPNYCDQMGNKASYIHLQGSDLRPQFHQFTAVPHPNVKPMAYANTLLQLGMM
partner: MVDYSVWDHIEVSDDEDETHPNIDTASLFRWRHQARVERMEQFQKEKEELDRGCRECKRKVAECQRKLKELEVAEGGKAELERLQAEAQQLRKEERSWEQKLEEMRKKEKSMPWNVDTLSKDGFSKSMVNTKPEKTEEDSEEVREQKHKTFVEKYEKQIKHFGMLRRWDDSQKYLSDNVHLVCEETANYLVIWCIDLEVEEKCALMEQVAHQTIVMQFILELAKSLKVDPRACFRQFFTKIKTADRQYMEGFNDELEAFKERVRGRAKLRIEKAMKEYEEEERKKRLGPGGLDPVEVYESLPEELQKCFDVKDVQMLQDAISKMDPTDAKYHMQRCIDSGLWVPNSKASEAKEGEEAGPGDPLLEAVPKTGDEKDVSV

Variants of: B1
Details: with cdc37_human CDC37, Q16543

| effect of a mutation on the interaction | Variant |
| --- | --- |
| disrupting interaction | K97A;R101A |
